T1: IL-3Rα, CD123 (interleukin 3 receptor subunit alpha) as expressed on CD123-positive human cancer cell lines … (human, UniProt P26951 20-378)
T1 construct: Target of the flow cytometry on the human cell line MOLM-13 (CD123-positive); NCBI Gene ID 3563; also called IL3RA; IL3R-alpha
T1 sequence: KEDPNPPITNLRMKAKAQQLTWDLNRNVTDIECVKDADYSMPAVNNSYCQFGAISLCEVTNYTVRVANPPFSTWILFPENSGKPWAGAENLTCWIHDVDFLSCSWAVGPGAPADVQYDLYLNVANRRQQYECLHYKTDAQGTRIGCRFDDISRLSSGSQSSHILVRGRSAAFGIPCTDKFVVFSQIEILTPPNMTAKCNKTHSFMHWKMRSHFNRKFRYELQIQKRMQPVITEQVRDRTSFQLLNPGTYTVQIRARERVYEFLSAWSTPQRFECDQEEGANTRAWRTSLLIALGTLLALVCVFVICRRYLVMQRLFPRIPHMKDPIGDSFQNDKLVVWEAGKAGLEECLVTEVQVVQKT

T2: TPP-5521, recombinant IL3Ra aa20-305 (extracellular domain of IL3Ra, R&D Systems) (murine (printed under Origin in Table …, UniProt P26951 20-305))
T2 construct: Bought antigen; also called soluble IL3Ralpha; IL3Ra protein
T2 sequence: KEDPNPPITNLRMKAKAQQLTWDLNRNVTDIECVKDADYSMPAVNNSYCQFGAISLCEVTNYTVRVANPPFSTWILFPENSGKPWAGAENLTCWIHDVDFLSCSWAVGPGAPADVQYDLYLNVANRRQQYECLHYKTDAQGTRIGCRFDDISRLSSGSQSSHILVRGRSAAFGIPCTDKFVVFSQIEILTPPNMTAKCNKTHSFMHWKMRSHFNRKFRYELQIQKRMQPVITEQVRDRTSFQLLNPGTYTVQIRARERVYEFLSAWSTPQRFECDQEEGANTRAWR


What was measured:
[1] = target: T1, IL-3Rα, CD123 (interleukin 3 receptor …); assay: flow cytometry on MOLM-13 cells, anti-kappa-FITC secondary antibody
Description: (§1) Binding of the anti-CD123 antibodies was examined by flow cytometry using human haematological cell line MOLM-13. To this end, the cells (5×10⁵ cells/well) were incubated in FACS buffer (PBS without Ca/Mg, 3% FCS, Biochrom) with 10 μg/ml primary antibody solution (start concentration) on ice for 30-45 min protected from light. A dose activity curve (1:5 dilution) was plotted. After the incubation, 200 μl of ice-cold FACS buffer were added using a pipette, and the cell suspension was centrifuged at 4° C. 400 g for 4 min. The cell pellet was washed with 300 μl of ice-cold FACS buffer and the pellet obtained was then resuspended in 100 μl FACS buffer and incubated again with secondary antibody (monoclonal anti-kappa light chains-FITC antibody, Sigma, No. SAB4700605) in a 1:10 dilution on ice for 30 min. The cells were then washed with ice-cold FACS buffer and adjusted to a cell concentration of 0.5×10⁶ cell/m1 prior to flow cytometry using a Guava flow cytometer (Millipore). Propidium iodide (final concentration 1 μg/ml) was used for live staining. The results were shown as EC₅₀ values determined based on the dose response curve and efficacy compared to maximal binding.

[2] = target: T2, TPP-5521, recombinant IL3Ra aa20-305 …; assay: SPR (Biacore T200), antibody captured by anti-human Fc, IL3Ra ECD as analyte, 1:1 Langmuir fit, 25 °C
Description: Surface plasmon resonance experiments for quantitative binding analysis were carried out using a Biacore T200 instrument (GE Healthcare Biacore, Inc.). Here the antibodies to be examined were fixed with the aid of an anti-human Fc antibody (“Human Antibody Capture Kit”, BR-1008-39, GE Healthcare Biacore, Inc.) amine-coupled to the sensor chip surface Amine coupling was performed according to the manufacturer's instructions using 1-ethyl-3-(3-dimethylaminopropyl)carbodiimide hydrochloride (EDC), N-hydroxysuccinimide (NHS) and ethanolamine HCl pH 8.5 (“Amine Coupling Kit” BR-1000-50, GE Healthcare Biacore, Inc.). For the analyses, Series S sensor chips CMS (GE Healthcare Biacore, Inc.) were used with the mobile buffer HBS-EP+ (10 mM HEPES pH 7.4, 150 mM NaCl, 3 mM EDTA, 0.05% Surfactant P20). All experimental steps were carried out at 25° C. After fixation of the anti-CD123 antibodies to be examined, injections of the extracellular domain of IL3Ra (analyte, R&D Systems) at concentrations of 100 nM were carried out, and after each antigen injection the sensor surface was regenerated with glycine HCl pH 2.0. Prior to another analyte injection, antibodies were in each case fixed as above, under identical conditions. For all measurements, an upstream flow cell only containing immobilized amine-coupled anti-human Fc antibody was used as reference cell. Evaluation of the sensorgrams obtained was, after double referencing (subtraction of the reference flow cell signal and a buffer injection), carried out by a global fit based on a 1:1 Langmuir binding model with the aid of the Biacore T200 evaluation software (GE Healthcare Biacore, Inc.).

[3] = target: T1, IL-3Rα, CD123 (interleukin 3 receptor …); assay: flow cytometry on MOLM-13 cells
Description: as §1

Binder	EC50 [1]	Efficacy [%] (compared to maximal binding) [1]	Kd [2]	binding result [3]
TPP-5969 (antibody, human IgG1, kappa, V domains shown, Humanized version of murine 7G3, human IgG1 kappa; also called HU7G3-4-hIgG1Kappa) VH: QVQLVQSGAEVKKPGSSVKVSCKASGGTFSDYYMKWVRQAPGQGLEWMGDIIPSNGATFYAQKFQGRVTITADESTSTAYMELSSLRSEDTAVYYCARSHLLRASWFAYWGQGTLVTVSS VL: DIVMTQSPDSLAVSLGERATINCESSQSLLNSGNQKNYLTWYQQKPGQPPKLLIYWASTRESGVPDRFSGSGSGTDFTLTISSLQAEDVAVYYCQNDYSYPYTFGQGTKLEIKR	5.3 nM	34%		
TPP-8987 (antibody, human IgG1, kappa, V domains shown, Humanized and germlined variant of 7G3, human IgG1 kappa) VH: QVQLVQSGAEVKKPGSSVKVSCKASGGTFSDYYMKWVRQAPGQGLEWMGDIIPSNGATFYNQKFKGQVTITADESTSTAYMELSSLRSEDTAVYYCARSHLLRASWFAYWGQGTLVTVSS VL: DIVMTQSPDSLAVSLGERATINCESSQSVLNSGNQKNYLTWYQQKPGQPPKLLIYWASTRESGVPDRFSGSGSGTDFTLTISSLQAEDVAVYYCQNDYSYPYTFGQGTKLEIKR	3.2 nM	100%	1.24 nM	
TPP-8988 (antibody, human IgG1, kappa, V domains shown, Humanized variant of 12F1 (IGKV3-20 / IGHV3-66 frameworks), human IgG1 kappa) VH: EVQLLESGGGLVQPGGSLRLSCAVSDYSITSGYYWNWIRQAPGKKLEWMGYISYDGSNNYNPSLKNGRITISRDTSKNTFYLQMNSLRAEDTAVYYCARGEGFYFDSWGQGTLVTVSS VL: EIVLTQSPGTLSLSPGERATLSCKSSQSLFFGSTQKNYLAWYQQKPGQAPRLLIYWASTRESGIPDRFSGSGSGTDFTLTISRLEPEDFAVYYCQQYYNYPWTFGQGTKLEIKR	1.9 nM	100%	0.33 nM	
TPP-9129 (antibody, human IgG1, kappa, V domains shown) VH: EVQLLESGGGLVQPGGSLRLSCAVSDYSITSGYYWNWIRQAPGKKLEWMGYISYDGSNNYNPSLKNGRITISRDTSKNTFYLQMNSLRAEDTAVYYCARGEGFYFDSWGQGTLVTVSS VL: EIVLTQSPGTLSLSPGERATLSCRASQSVSSSYLAWYQQKPGQAPRLLIYWASTRESGIPDRFSGSGSGTDFTLTISRLEPEDFAVYYCQQYYNYPWTFGQGTKLEIKR				no binding (tested: 10 µg/ml (start concentration))
TPP-9075 (antibody, human IgG1, kappa, V domains shown) VH: EVQLLESGGGLVQPGGSLRLSCAVSDYSITSGYYSNWIRQAPGKKLEWMGYISYDGSNNYNPSLKNGRITISRDTSKNTFYLQMNSLRAEDTAVYYCARGEGFYFDSWGQGTLVTVSS VL: EIVLTQSPGTLSLSPGERATLSCKSSQSLFFGSTQKNYLAWYQQKPGQAPRLLIYWASTRESGIPDRFSGSGSGTDFTLTISRLEPEDFAVYYCQQYYNYPWTFGQGTKLEIKR	5.37 nM	100%		
TPP-9104 (antibody, human IgG1, kappa, V domains shown) VH: EVQLLESGGGLVQPGGSLRLSCAVSDYSITSNYYWNWIRQAPGKKLEWMGYISYDGSNNYNPSLKNGRITISRDTSKNTFYLQMNSLRAEDTAVYYCARGEGFYFDSWGQGTLVTVSS VL: EIVLTQSPGTLSLSPGERATLSCKSSQSLFFGSTQKNYLAWYQQKPGQAPRLLIYWASTRESGIPDRFSGSGSGTDFTLTISRLEPEDFAVYYCQQYYNYPWTFGQGTKLEIKR	25.3 nM	83%		
TPP-9078 (antibody, human IgG1, kappa, V domains shown) VH: EVQLLESGGGLVQPGGSLRLSCAVSDYSITSGYYWNWIRQAPGKKLEWVGYISYDGSNNYNPSLKNGRITISRDTSKNTFYLQMNSLRAEDTAVYYCARGEGFYFDSWGQGTLVTVSS VL: EIVLTQSPGTLSLSPGERATLSCKSSQSLFFGSTQKNYLAWYQQKPGQAPRLLIYWASTRESGIPDRFSGSGSGTDFTLTISRLEPEDFAVYYCQQYYNYPWTFGQGTKLEIKR				no binding (tested: 10 µg/ml (start concentration))
TPP-9130 (antibody, human IgG1, kappa, V domains shown) VH: EVQLLESGGGLVQPGGSLRLSCAVSDYSITSGYYWNWIRQAPGKKLEWMGYISYDGSNNYNPSLKNGRITISRDTSKNTFYLQMNSLRAEDTAVYYCARGEGFYFDSWGQGTLVTVSS VL: EIVLTQSPGTLSLSPGERATLSCKSSQSLFFGSTQKNYLAWYQQKPGQAPRLLIYGASSRATGIPDRFSGSGSGTDFTLTISRLEPEDFAVYYCQQYYNYPWTFGQGTKLEIKR	3.01 nM	100%		

Now from value to binder, other results behind:

EC50 [1]	Efficacy [%] (compared to maximal binding) [1]	Kd [2]	Binder	binding result [3]
1.12 nM	36%		TPP-8695 (antibody, human IgG1, kappa, V domains shown, also called Variant4-hIgG1kappa) VH: QVQLVQSGAEVKKPGSSVKVSCKASGGTFSDYYMKWVRQAPGQGLEWMGDIIPSNGATFYNQKFKGQVTITADESTSTAYMELSSLRSEDTAVYYCARSHLLRASWFAYWGQGTLVTVSS VL: DIVMTQSPDSLAVSLGERATINCESSQSLLNSGNQKNYLTWYQQKPGQPPKLLIYWASTRESGVPDRFSGSGSGTDFTLTISSLQAEDVAVYYCQNDYSYPYTFGQGTKLEIKR	
2.8 nM	100%	7.2 nM	TPP-9476 (antibody, human IgG1, kappa, V domains shown, Humanized and germlined variant of 7G3, human IgG1 kappa) VH: QVQLVQSGAEVKKPGSSVKVSCKASGGTFSDYYMKWVRQAPGQGLEWMGDIIPSNGATFYNQKFKGRVTITADESTSTAYMELSSLRSEDTAVYYCARSHLLRASWFAYWGQGTLVTVSS VL: DIVMTQSPDSLAVSLGERATINCESSQSVLNSGNQKNYLTWYQQKPGQPPKLLIYWASTRESGVPDRFSGSGSGTDFTLTISSLQAEDVAVYYCQNDYSYPYTFGQGTKLEIKR	
2 nM	100%	0.8 nM	TPP-6013 (antibody, human IgG1, kappa, V domains shown, Chimeric antibody: murine 12F1 variable domains with human IgG1 kappa constant regions; also called antiCD123-12F1-hIgG1Kappa; chimeric variant of 12F1) VH: QVQLQESGPGLVKPSQSLSLTCSVTDYSITSGYYWNWIRQFPGNKLEWMGYISYDGSNNYNPSLKNRISITRDTSKNQFFLKLSSVTTEDTATYYCSRGEGFYFDSWGQGTTLTVSS VL: DIMMSQSPSSLAVSVGEKFTMTCKSSQSLFFGSTQKNYLAWYQQKPGQSPKLLIYWASTRESGVPDRFTGSGSGTDFTLAISSVMPEDLAVYYCQQYYNYPWTFGGGTKLEIKR	
1.4 nM	100%		TPP-8617 (antibody, human IgG1, kappa, V domains shown, Humanized 12F1 graft on IGKV4-1 / IGHV5-51; also called Hum-TPP6013-17) VH: EVQLVQSGAEVKKPGESLKISCKGSDYSITSGYYWNWVRQMPGKGLEWMGYISYDGSNNYNPSLKNGQVTISADKSISTAYLQWSSLKASDTAMYYCSRGEGFYFDSWGQGTLVTVSS VL: DIMMSQSPSSLAVSVGEKFTMTCKSSQSLFFGSTQKNYLAWYQQKPGQSPKLLIYWASTRESGVPDRFTGSGSGTDFTLAISSVMPEDLAVYYCQQYYNYPWTFGGGTKLEIKR	

Reference: US20190330357A1 (Bayer, published 2019)
